Experimental data taken from US7572594B2, “Screening assays for agonists or antagonists or receptor activator of NF-κB” (Immunex Corporation, priority 2000, dated 2009).

Experiments:
[1] = tested on: primary hematopoietic cells from the RANK −/− mice; experiment: F-actin ring formation, phalloidin staining; assay type: cell-based, mouse; details: 5 days in 40 ng/ml CSF-1 and 200 ng/ml mRANK-L
Excerpt: To detect F-actin rings, cells are fixed, such as by exposure to 3% paraformaldehyde, and visualized by staining cells with a fluorescent probe that binds specifically with actin. A suitable fluorescent tag is phalloidin, which can be obtained from Molecular Probes, Eugene, Oreg. The fluorescent signal is detected, for example, using a standard fluorescent microscope, and the number of cells having F-actin rings is visually quantified. An F-actin ring is identified as a continuous ring of F-actin at the periphery of a cell, and these distinct structures are visible through a microscope.
A procedure to detect F-actin rings was carried out as follows. Primary hematopoietic cells from the RANK −/− mice were infected with retroviral constructs encoding either the full-length human RANK cDNA or the RANK/TRAF6 binding mutant (RANK Δ340-421). Cells were cultured on LabTek Chamber slides with #1 borosilicate coverglasses (Nalge/Nunc). After incubation for 5 days in MEM containing 10% fetal bovine serum containing 40 ng/ml CSF-1 and 200 ng/ml mRANK-L. The media was aspirated, washed twice in PBS and then fixed in a solution of 3% paraformaldehyde for 10 minutes, followed by quenching in 50 mM NH4Cl. […] The fluorescent signal was detected using a standard fluorescent microscope, and F-actin rings were identified as continuous rings of F-actin at the periphery of individual cells.

[2] = tested on: endogenous c-jun kinase (JNK); experiment: JNK immune-complex kinase assay in transfected 3T3 cells; assay type: cell-based, murine; details: 3T3 cells 24 hours after transfection, absence of RANK-L stimulation
Method: This example describes evaluating murine 3T3 cells transfected with plasmids containing DNA encoding human FEO RANK (SEQ ID NO:9), and murine 3T3 cells expressing recombinant DNA encoding human wild type RANK (SEQ ID NO:1) for their relative ability to activate endogenous c-jun kinase (JNK) in the absence of RANK-L stimulation. JNK is known to be activated as a consequence of RANK signal transduction.
For JNK assays, whole cell extracts were prepared from 3T3 cells 24 hours after transfection. Cells were lysed in a buffer containing 20 mM HEPES, pH 7.4, 2 mM EGTA, 50 mM β-glycerol phosphate, 1 mM DTT, 1 mM sodium orthovanadate, 1% Triton-X 100, 10% glycerol and the protease inhibitors leupeptin, pepstatin A, and PMSF. Clarified lysates were immunoprecipitated with 1 μg each anti-JNK (FL) and anti-JNK (C17) antibodies (both from Santa Cruz Biotechnology, Inc. Santa Cruz, Calif.). […] JNK activity was determined by an immune-complex assay using 1 μg of a fusion protein of glutathione-S-transferase and amino acids 1-169 of […] (GST-cJun (1-169)) (UBI, Lake Placid, N.Y.) and 5 μCi of [^32P]-ATP as substrate in 40 μl of assay buffer at 30° C. for 20 min. […]

[3] = tested on: mouse TRAP promoter (SEQ ID NO:12); experiment: mouse TRAP promoter/luciferase reporter in 293/EBNA cells; assay type: cell-based; details: 24 hours after transfection, 0.4 ng RANK vector, 20 ng RANK-L vector
Excerpt: (§1) This example describes the activation of the TRAP promoter. A 2.6 kb DNA fragment containing the human TRAP promoter was obtained by digesting the plasmid pBL2HT2.2 with the restriction endonuclease ApaI. The cloning of the human TRAP gene 5′ region and the construction of pBL2HT2.2 are fully described in Reddy et al. (Bone 16:587-593 (1995)). A DNA containing the mouse TRAP promoter (SEQ ID NO:12) and a DNA containing the murine MMP-9 promoter (SEQ ID NO:11) also were used for these experiments. DNAs containing the promoters were fused to the luciferase reporter gene. These promoter/reporter constructs were transfected into human 293/EBNA cells along with various combinations of expression vectors that encoded full-length human RANK (SEQ ID NO:2) and human full-length RANK-L proteins (SEQ ID NO:6).
For the mouse TRAP promoter (SEQ ID NO:12), 2×10^5 293/EBNA cells were transfected using DEAE/dextran with 40 ng of a plasmid encoding approximately 2 kb of the mouse TRAP promoter (SEQ ID NO:12) fused to a luciferase reporter, 20 ng of an expression vector encoding RANK-L (SEQ ID NO:6), and 0.4 ng of an expression vector encoding RANK (SEQ ID NO:2). Twenty four hours after transfection, luciferase activity in cell lysates was measured according to manufacturer's instructions (Promega) using a EG&G/Berthold luminometer. […]

RANK = experiment: radioimmune assay of reporter surface expression in 293/EBNA cells; assay type: cell-based; details: 48 hours after transfection
Method: Additionally, surface expression of human IL-2α receptor can be analyzed using a radioactive antibody against IL-2α receptor. For the mIL-4R-specific radioimmune assay, mouse anti-human IL-2α monoclonal antibody reactive with mIL-4R was labeled with ^125I via a Chloramine T conjugation method; the resulting specific activity is typically […]. After 48 hours, cells transfected with pGL2-MMP-9/human IL-2 receptor were washed once with media (DMEM, 12 5% FBS). Non-specific binding sites were blocked by the addition of pre-warmed binding media containing 5% non-fat dry milk and incubation at 37° C./5% CO2 in a tissue culture incubator for one hour. The blocking media was decanted and binding buffer containing ^125I anti-mIL-4R (clone M1; rat IgG1) was added to the cells and incubated with rocking at room temperature for 1 hour. After incubation of the cells with the radio-labeled antibody, cells were washed extensively with binding buffer (2 X) and twice with phosphate-buffered saline (PBS). Cells were lysed in 1 ml of 0.5M NaOH, and total radioactivity measured with a gamma counter.

[4] = tested on: murine MMP-9 promoter (SEQ ID NO:11); experiment: murine MMP-9 promoter/luciferase reporter in 293/EBNA cells; assay type: cell-based; details: 40 ng reporter
Excerpt: as §1
For the murine MMP-9 promoter experiments, 4.1 kb of the murine MMP-9 promoter (SEQ ID NO:11) were fused to a luciferase gene and transfected (40 ng) into 293/EBNA cells. Transfection of either RANK (SEQ ID NO:2) alone or the combination of RANK (SEQ ID NO:2) plus RANK-L (SEQ ID NO:6) increased reporter expression 2.5-fold.

B1: wild type RANK: full-length human RANK, receptor activator of NF-κB (SEQ ID NO:2), expressed from vector or retrovirus (protein, listed as Homo sapiens)
chain: MAPRARRRRPLFALLLLCALLARLQVALQIAPPCTSEKHYEHLGRCCNKCEPGKYMSSKCTTTSDSVCLPCGPDEYLDSWNEEDKCLLHKVCDTGKALVAVVAGNSTTPRRCACTAGYHWSQDCECCRRNTECAPGLGAQHPLQLNKDTVCKPCLAGYFSDAFSSTDKCRPWTNCTFLGKRVEHHGTEKSDAVCSSSLPARKPPNEPHVYLPGLIILLLFASVALVAAIIFGVCYRKKGKALTANLWHWINEACGRLSGDKESSGDSCVSTHTANFGQQGACEGVLLLTLEEKTFPEDMCYPDQGGVCQGTCVGGGPYAQGEDARMLSLVSKTEIEEDSFRQMPTEDEYMDRPSQPTDQLLFLTEPGSKSTPPFSEPLEVGENDSLSQCFTGTQSTVGSESCNCTEPLCRTDWTPMSSENYLQKEVDSGHCPHWAASPSPNWADVCTGCRNPPGEDCEPLVGSPKRGPLPQCAYGMGLPPEEEASRTEARDQPEDGADGRLPSSARAGAGSGSSPGGQSPASGNVTGNSNSTFISSGQVMNFKGDIIVVYVSQTSQEGAAAAAEPMGRPVQEETLARRDSFAGNGPRFPDPCGGPEGLREPEKASRPVQEQGGAKA
For B1, the “cells with F-actin rings” value [1] was “more than 50%”, the “activation of JNK” value [2] was “not” and the “increase of reporter expression (luciferase)” value [3] was “approximately 2 fold”. For the same molecule, the “transcriptional activation, reporter detected on the cell surface” value (RANK) was “resulted in transcription of muIL-4R” and the “increase of reporter expression (luciferase)” value [4] was 2.5 fold.
